# Assay results: patent US20230051715A1 (MABWELL THERAPEUTICS, published 2023)
# What was measured:
# [1] = target: T1, active human C1s (CompTech A104 C1s Enzyme) (human, UniProt P09871 16-688); experiment: BLI (Octet RED96e), antibody on AHC biosensor; HuC1s Form: Active; R^2 0.9998
# T1 construct: also called human active C1s; active C1s protein
# T1 sequence (looked up): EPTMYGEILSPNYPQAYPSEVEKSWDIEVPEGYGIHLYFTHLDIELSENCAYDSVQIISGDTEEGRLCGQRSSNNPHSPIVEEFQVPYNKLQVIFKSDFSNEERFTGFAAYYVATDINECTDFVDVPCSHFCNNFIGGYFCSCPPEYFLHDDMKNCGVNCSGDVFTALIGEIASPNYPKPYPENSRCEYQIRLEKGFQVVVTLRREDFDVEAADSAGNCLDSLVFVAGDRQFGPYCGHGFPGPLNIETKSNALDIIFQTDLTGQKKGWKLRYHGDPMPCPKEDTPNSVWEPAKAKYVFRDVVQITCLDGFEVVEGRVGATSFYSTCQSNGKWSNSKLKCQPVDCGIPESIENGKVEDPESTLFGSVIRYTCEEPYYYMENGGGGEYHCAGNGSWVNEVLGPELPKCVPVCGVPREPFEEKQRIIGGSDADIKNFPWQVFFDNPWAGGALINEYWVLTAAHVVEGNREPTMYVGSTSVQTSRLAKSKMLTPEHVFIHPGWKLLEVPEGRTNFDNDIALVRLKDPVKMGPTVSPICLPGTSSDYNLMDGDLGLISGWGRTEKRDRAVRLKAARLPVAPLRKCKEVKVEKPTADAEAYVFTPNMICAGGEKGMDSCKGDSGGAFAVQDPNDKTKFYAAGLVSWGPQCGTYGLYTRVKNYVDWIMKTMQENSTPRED
# Method: Bio-Layer Interferometry technology was used for anti-C1s antibody affinity measurement and binding kinetics determinations with OCTET® RED96e system (Sartorius AG). Pre-hydrated Anti-Human IgG Fc Capture (AHC) biosensors were first equilibrated in 1×KB (Kinetic Buffer, 1×PBS pH 7.4+0.02% Tween-20+0.1% BSA) for 120 sec for the first baseline, followed by loading with […] anti-C1s antibody (2-7, FIG. 3A; 2-8, FIG. 3B; hz2-7(H1L2), FIG. 3C; hz2-8(H1L2 G80A/T82A, FIG. 3D) onto AHC biosensors for 240 sec. Then, the second baseline signal was established for 120 sec before association with various concentrations of active human C1s (CompTech A104) for 240-360 sec. At last, analyte was dissociated in 1×KB for 360 sec. Anti-C1s antibodies 2-7 and 2-8 were also analyzed against human C1s proenzyme (CompTech A103) (data not shown). Data analysis was carried out using OCTET® Data Analysis HT Software (Sartorius AG). KD, kₒₙ, koff and R² values were calculated for each antibody and target combination, as summarized in FIG. 3E showing high affinity binding with KD values in the low nanomolar to picomolar range.
# [2] = target: T2, human C1s mutant M6 (P280A, E282K & K336G) (human, UniProt P09871 16-688); experiment: ELISA, plate coated with human C1s mutant M6: P280A, E282K, K336G, OD450nm
# T2 construct: The entry is the mutant itself
# T2 sequence: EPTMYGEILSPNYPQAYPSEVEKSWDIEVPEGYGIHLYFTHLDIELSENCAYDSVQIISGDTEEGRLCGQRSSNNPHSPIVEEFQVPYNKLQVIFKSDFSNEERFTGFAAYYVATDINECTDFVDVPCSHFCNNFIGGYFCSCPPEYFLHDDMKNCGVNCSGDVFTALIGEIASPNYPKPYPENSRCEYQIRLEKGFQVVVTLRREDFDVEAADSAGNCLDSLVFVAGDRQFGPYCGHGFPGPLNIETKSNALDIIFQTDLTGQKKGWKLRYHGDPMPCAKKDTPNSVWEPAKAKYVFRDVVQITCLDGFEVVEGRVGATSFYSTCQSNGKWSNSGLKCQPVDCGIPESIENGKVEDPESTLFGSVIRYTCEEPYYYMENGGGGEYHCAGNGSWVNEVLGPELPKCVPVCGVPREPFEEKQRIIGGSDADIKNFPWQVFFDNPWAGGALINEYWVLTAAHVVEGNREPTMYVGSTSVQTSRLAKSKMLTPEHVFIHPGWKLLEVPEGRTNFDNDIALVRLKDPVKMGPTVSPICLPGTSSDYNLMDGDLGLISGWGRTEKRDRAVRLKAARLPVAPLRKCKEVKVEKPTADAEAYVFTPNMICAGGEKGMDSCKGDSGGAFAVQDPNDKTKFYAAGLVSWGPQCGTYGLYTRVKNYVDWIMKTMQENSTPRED
# Method: ELISA was carried out by first coating 96-well plates with 200 ng/well of full-length or truncated C1s proteins overnight. The next morning, plates were blocked with SuperBlock T20 blocking buffer (Thermo Scientific 37536) for 1 h with gentle shaking. Then, various concentrations of anti-C1s antibodies diluted in SuperBlock T20 blocking buffer were added to the plates and incubated for 1 h with gentle shaking. Mouse IgG (Sigma-Aldrich 15381) and human IgG1 (BioXCell BP0297) were used as negative controls. The plates were washed before incubating with HRP conjugated secondary antibodies diluted in SuperBlock T20 blocking buffer (goat anti-mouse IgG (H+L) cross-adsorbed secondary antibody HRP (Invitrogen G-21040) or goat anti-human IgG antibody, HRP conjugate (Millipore AP309P)) for 1 h with gentle shaking. At last, the plates were washed and color developed with ELISA liquid HRP substrate (Sigma-Aldrich), followed by stopping the reaction with addition of 1M H₂SO₄ in the same volume as the ELISA liquid substrate. Bound antibody was measured by absorbance at OD₄₅₀ₙₘ.
# Binding of anti-C1s antibodies to mutants M1-M20 of human C1s was measured by ELISA as described in Example 4, and results are shown in FIGS. 6B-6U. […]
Binder,Kd [1] [pM],koff [1] [s⁻¹],kon [1] [M⁻¹ s⁻¹],EC50 [2] [µg/mL]
"Anti-C1s antibody hz2-7(H1L2) (antibody, V domains shown, Humanized, human IgG1 / kappa; also called hz2-7(1L2)) VH: EVQLLESGGGLVQPGGSLRLSCAASGFTFSNYFMNWVRQAPGKGLEWVSEIRLKFTNYATHYADSVKGRFTISRDDSKSTLYLQMNSLRAEDTAVYYCTRDYGSRNGYFDYWGQGTLVTVSS VL: DIVMTQTPLSLPVTPGEPASISCRSSKSLLHSNGNTFLYWFLQKPGQSPQLLIYRMSNLASGVPDRFSGSGSGTDFTLKISRVEAEDVGVYYCMQHLEYPYTFGGGTKLEIKR",240,7e-05,290000,0.013
"Anti-C1s antibody hz2-8 (H1L2 G80A/T82A) (antibody, V domains shown, Humanized variant with G80A and T82A in HC CDR2 (already in the entry), human IgG1 / kappa) VH: QVQLVQSGAEVKKPGASVKVSCKASGFNIKEYYMHWVRQAPEQGLEWMGWIDPENADAIYAQKFQGRVTITADTSTNTAYMELSSLRSEDTAVYYCARSRLFFAYWGQGTLVTVSS VL: DIQMTQSPKSLSASVGDRVTITCRASQDVRTALDWYQQKPGQSPKLLIYSASYRYSGVPSRFSGSGSGTDFTLTISSLQPEDFATYYCQQQYTTPYTFGQGTKLEIKR",1200,0.00029,240000,0.06
